Two molecules from paper PMC3274541, “The Inherited Blindness Protein AIPL1 Regulates the Ubiquitin-Like FAT10 Pathway” (PLoS ONE, 2012) can be followed below.

Sequences and labels used below:
B1: NUB1-FLAG (NEDD8 ultimate buster-1) (natural protein)
chain: not shown
notes: NEDD8 ultimate buster-1 (NUB1), the shorter splice variant that lacks 14 amino acids in the second UBA domain of NUB1L; also called NUB1-p3XFLAG-CMV; source: SK-N-SH, transfected, in lysate
B2: HA-FAT10 (natural protein, UniProt O15205 1-165, looked up)
chain: MAPNASCLCVHVRSEEWDLMTFDANPYDSVKKIKEHVRSKTKVPVQDQVLLLGSKILKPRRSLSSYGIDKEKTIHLTLKVVKPSDEELPLFLVESGDEAKRHLLQVRRSSSVAQVKAMIETKTGIIPETQIVTCNGKRLEDGKMMADYGIRKGNLLFLACYCIGG
notes: ubiquitin-like modifier FAT10; also called free FAT10; monomeric FAT10; source: SK-N-SH, transfected, in lysate

Experiment in all cases: co-IP; SK-N-SH cells co-transfected; lysed in DM buffer (1% n-dodecyl-β-D-maltoside, 10 mM EDTA, protease inhibitors in PBS); 2 µl antibody 2 h at 4°C, Protein G Sepharose overnight at 4°C, 5 washes; western blot; with or without 50 µM MG132 for 4 h
Holding throughout (settings): partners not purified

The target in the experiment “HA-FAT10” is B2.
Experiment [1] deals with T1, Myc-AIPL1 (aryl hydrocarbon receptor interacting protein-like 1), wild type (UniProt Q9NZN9 1-384).
T1 construct: also called pCMV-Tag3C-AIPL1; WT AIPL1; source: SK-N-SH, transfected, in lysate
T1 sequence (looked up): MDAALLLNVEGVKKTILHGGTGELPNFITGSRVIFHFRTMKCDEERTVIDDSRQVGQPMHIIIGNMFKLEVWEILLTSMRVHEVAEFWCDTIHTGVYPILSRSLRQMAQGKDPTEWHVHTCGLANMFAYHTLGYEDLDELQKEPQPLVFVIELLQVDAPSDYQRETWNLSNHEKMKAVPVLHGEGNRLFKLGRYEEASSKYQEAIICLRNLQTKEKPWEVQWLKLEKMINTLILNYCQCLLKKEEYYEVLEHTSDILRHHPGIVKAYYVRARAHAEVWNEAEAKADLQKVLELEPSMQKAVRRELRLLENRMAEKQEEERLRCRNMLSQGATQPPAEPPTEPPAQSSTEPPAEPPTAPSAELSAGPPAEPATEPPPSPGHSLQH

The target of experiment [2] is B1.

As for B1, in the experiment with HA-FAT10, the “fold increase of the co-precipitate with MG132 over untreated cells” value was roughly 5 fold.
Take B2: the “fold increase of the co-precipitate with proteasome inhibitor over untreated cells” value in experiment [1] is roughly 5 fold; in experiment [2], roughly 2 fold.
